From US20250034271A1

Target: Histidine-tagged human CD40 protein (hCD40-His) (human) (UniProt P25942)
Assay: SPR, Biacore T200; antibody on Protein A chip, hCD40-His injected; 1:1 fit

Chain of Histidine-tagged human CD40 protein (hCD40-His) (human) (P25942 21-193 limits assumed): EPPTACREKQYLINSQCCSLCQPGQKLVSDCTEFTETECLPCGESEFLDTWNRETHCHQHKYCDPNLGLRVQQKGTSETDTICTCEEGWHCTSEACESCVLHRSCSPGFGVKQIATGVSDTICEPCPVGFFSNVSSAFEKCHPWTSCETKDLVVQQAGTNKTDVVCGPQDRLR

B1: Dacetuzumab (antibody, part only; not given: constant regions, V domains shown, not shown: another chain or arm of the molecule)
VH: EVQLVESGGGLVQPGGSLRLSCAASGYSFTGYYIHWVRQAPGKGLEWVARVIPNAGGTSYNQKFKGRFTLSVDNSKNTAYLQMNSLRAEDTAVYYCAREGIYWWGQGTLVTVSS
VL: DIQMTQSPSSLSASVGDRVTITCRSSQSLVHSNGNTFLHWYQQKPGKAPKLLIYTVSNRFSGVPSRFSGSGSGTDFTLTISSLQPEDFATYFCSQTTHVPWTFGQGTKVEIK
With B1 as the binder, how does the Kd read?
Its Kd is 20 nM.

And the koff?
The koff was 0.00833 s⁻¹.

What about the kon of the same binder?
Its kon is 417000 M⁻¹ s⁻¹.
